Target: SMARCD1 (human) (UniProt Q96GM5)
Assay: HA-bait purification from HEK-293T nuclear extract, mass spectrometry, peptide count

SMARCD1 (human), sequence (Q96GM5 whole entry): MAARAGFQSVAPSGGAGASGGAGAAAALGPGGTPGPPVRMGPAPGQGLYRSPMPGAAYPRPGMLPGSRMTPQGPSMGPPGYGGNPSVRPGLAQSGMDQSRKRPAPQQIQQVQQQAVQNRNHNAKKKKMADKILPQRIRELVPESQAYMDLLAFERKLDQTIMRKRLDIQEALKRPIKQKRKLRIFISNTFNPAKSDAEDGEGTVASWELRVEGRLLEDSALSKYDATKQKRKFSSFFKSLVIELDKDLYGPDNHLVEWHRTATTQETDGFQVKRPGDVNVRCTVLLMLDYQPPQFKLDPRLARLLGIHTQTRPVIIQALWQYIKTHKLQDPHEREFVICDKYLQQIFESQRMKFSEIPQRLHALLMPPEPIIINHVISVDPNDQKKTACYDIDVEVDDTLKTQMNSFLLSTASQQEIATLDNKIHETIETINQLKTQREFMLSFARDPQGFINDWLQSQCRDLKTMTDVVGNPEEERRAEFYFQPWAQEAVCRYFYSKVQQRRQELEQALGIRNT

Total: 73 peptides
Unique: 44 peptides
B1: HA-BRD7 (protein, human)
chain: MYPYDVPDYAMGKKHKKHKSDKHLYEEYVEKPLKLVLKVGGNEVTELSTGSSGHDSSLFEDKNDHDKHKDRKRKKRKKGEKQIPGEEKGRKRRRVKEDKKKRDRDRVENEAEKDLQCHAPVRLDLPPEKPLTSSLAKQEEVEQTPLQEALNQLMRQLQRKDPSAFFSFPVTDFIAPGYSMIIKHPMDFSTMKEKIKNNDYQSIEELKDNFKLMCTNAMIYNKPETIYYKAAKKLLHSGMKILSQERIQSLKQSIDFMADLQKTRKQKDGTDTSQSGEDGGCWQREREDSGDAEAHAFKSPSKENKKKDKDMLEDKFKSNNLEREQEQLDRIVKESGGKLTRRLVNSQCEFERRKPDGTTTLGLLHPVDPIVGEPGYCPVRLGMTTGRLQSGVNTLQGFKEDKRNKVTPVLYLNYGPYSSYAPHYDSTFANISKDDSDLIYSTYGEDSDLPSDFSIHEFLATCQDYPYVMADSLLDVLTKGGHSRTLQEMEMSLPEDEGHTRTLDTAKEMEITEVEPPGRLDSSTQDRLIALKAVTNFGVPVEVFDSEEAEIFQKKLDETTRLLRELQEAQNERLSTRPPPNMICLLGPSYREMHLAEQVTNNLKELAQQVTPGDIVSTYGVRKAMGISIPSPVMENNFVDLTEDTEEPKKTDVAECGPGGS

Source: US20210388040A1
